The results in this text go back to patent US20130034559A1.

The target of assay [1] is human B7-H1 expressed on cells (human) (UniProt Q9NZQ7). Kind of assay: FACS, 1 µg/ml isotype control, anti-CD3-activated human T cells. (A flow cytometer gives signals particle by particle.)
The target of assay [2] is mouse B7-H1 on J558 cells (mouse) (UniProt Q9EP73). Kind of assay: FACS, 5 µg/ml isotype control, J558 cells expressing mouse B7-H1.
The target of assay [3] is human B7-DC on 293T cells (human) (UniProt Q9BQ51). Description: FACS, 5 µg/ml isotype control, 293T cells transfected with human B7-DC.
Chain of human B7-DC on 293T cells (human) (Q9BQ51 20-273): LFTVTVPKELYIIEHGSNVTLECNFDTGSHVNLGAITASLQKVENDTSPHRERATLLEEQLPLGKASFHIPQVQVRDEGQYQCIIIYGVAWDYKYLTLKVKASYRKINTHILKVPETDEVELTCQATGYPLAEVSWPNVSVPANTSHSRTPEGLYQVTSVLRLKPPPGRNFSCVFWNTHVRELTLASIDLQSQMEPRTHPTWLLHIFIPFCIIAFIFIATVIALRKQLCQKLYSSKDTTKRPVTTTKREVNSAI
Assay [4] addresses human B7-H1 expressed on cells (human) (UniProt Q9NZQ7). Kind of assay: FACS, 5 µg/ml isotype control, 293T cells transfected with human B7-H1.
In assay [5] the target is cynomolgus monkey B7-H1 expressed on cells (cynomolgus monkey) (UniProt G7PSE7). Kind of assay: FACS, 1 µg/ml isotype control, anti-CD3-activated cynomolgus monkey T cells.
Chain of cynomolgus monkey B7-H1 expressed on cells (cynomolgus monkey) (G7PSE7 entry or part of it): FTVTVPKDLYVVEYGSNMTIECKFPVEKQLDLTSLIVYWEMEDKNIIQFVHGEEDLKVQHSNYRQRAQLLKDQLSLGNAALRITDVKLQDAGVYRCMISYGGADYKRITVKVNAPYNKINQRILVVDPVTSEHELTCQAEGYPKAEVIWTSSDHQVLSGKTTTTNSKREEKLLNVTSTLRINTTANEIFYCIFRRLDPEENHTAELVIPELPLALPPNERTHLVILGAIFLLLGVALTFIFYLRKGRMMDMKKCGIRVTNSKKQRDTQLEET

Chain of human B7-H1 expressed on cells (human) (Q9NZQ7 19-290): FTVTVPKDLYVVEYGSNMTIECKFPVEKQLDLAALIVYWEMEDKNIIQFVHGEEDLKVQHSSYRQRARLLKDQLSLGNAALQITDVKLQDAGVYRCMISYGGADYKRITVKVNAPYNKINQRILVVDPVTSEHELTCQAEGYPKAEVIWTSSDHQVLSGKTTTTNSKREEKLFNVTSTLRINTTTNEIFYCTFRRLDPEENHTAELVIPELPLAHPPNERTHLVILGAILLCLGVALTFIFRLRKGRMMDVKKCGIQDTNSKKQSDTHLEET
Chain of mouse B7-H1 on J558 cells (mouse) (Q9EP73 19-290): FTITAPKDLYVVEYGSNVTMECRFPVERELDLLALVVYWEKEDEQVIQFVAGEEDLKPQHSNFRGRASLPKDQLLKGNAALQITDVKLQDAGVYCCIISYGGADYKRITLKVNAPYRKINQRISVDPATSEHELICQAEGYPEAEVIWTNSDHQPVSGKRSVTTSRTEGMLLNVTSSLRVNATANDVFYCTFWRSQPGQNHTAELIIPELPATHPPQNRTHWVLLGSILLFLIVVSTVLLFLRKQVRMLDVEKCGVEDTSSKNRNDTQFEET

As to irrelevant human IgG2 antibody, the geo mean worked out at 10 in assay [1], 3.1 in assay [2], 9.5 in assay [3] and 7.6 in assay [4].
Take irrelevant human IgG4 antibody: the geo mean was 10 in assay [1]; 3.2 in assay [2]; 8.8 in assay [3]; 10.7 in assay [4]; 17.6 in assay [5].
